# Source: US20250145691A1
# Target: Pangolin CoV S2-37 (Pangolin CoV)
binder,measurement,value
"Antibody SC45 Fab (Fab, V domains shown) VH: QVQLQESGPGLVKSSETLSLTCTVSGGSISSYYWSWIRQPPGKGLEWIGCIYSSGSTNYNPSLKSRVTISVDSSKNQFSLRLNSVTAADTAVYYCARHKGTDFWSGYSFTPRGGWFDPWGQGALVSVSS VL: DIQMTQSPSSLSASVGDRVTITCRASQSISSYLNWYQQKPGKAPKLLIYGASNLQSGVPSRFSGSGSETDFTLTISSLQPEDFASYYCQQSHSIPVTFGQGTKLEIK",koff,0.000923 s⁻¹
same,kon,32100 M⁻¹ s⁻¹
